What was measured:
[1] = molecular target: T1, human FRα on cells (human, UniProt P15328 25-234); experiment: cell-based or functional assay
[2] = molecular target: T1, human FRα on cells; experiment: apparent Kd, flow cytometry on JEG-3 cells (endogenous FRα), 24 h at 4°C
Method: (§1) Briefly, cells were seeded at 50,000 cells/well in V-bottom 96-well plates and treated with antibody for 24 hours at 4° C. to prevent internalization. […] Following incubation and washing, fluorescence was detected by flow cytometry on a BD LSRFortessa™ Cell Analyzer (BD Biosciences, Franklin Lake, NJ) with 1,000 minimum events collected per well. AF647/APC-A GeoMean (fluorescence signal geometric mean, proportional to anti-Human AF647 binding) in live cell population was plotted using GraphPad Prism Version 9 (GraphPad Software, San Diego, CA).

[3] = molecular target: T1, human FRα on cells; experiment: apparent Kd, flow cytometry on HEC-1-A cells (endogenous FRα), 24 h at 4°C
Method: as §1

[4] = molecular target: T1, human FRα on cells; experiment: apparent Kd, flow cytometry on JEG-3 cells (endogenous FRα), as in Example 16
Method: as §1

[5] = molecular target: T1, human FRα on cells; experiment: apparent Kd, flow cytometry on IGROV-1 cells (endogenous FRα), as in Example 16
Method: as §1

[6] = molecular target: T2, recombinant His-tagged human FRα (ACROBiosystems) (human, UniProt P15328 25-233); experiment: SPR (Biacore T200), high antigen density; end of the range tied to v30384 by Table 8.3
T2 construct: also called hFRα; hFRα antigen; not shown: His tag
T2 sequence (P15328 25-233 limits assumed): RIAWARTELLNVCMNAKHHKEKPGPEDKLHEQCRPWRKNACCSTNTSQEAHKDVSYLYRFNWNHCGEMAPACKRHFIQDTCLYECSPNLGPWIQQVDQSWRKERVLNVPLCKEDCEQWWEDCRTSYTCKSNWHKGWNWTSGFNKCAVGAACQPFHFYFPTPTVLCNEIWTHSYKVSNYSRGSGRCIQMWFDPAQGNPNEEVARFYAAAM
Method: (§2) Screening of the variants for binding to hFRα antigen was conducted in two steps: capture of hFRα onto surface, followed by injection of three to five concentrations of variant. The hFRα surface was prepared on a CM5 Series S sensor chip by standard amine coupling methods as described by the manufacturer (GE Healthcare Life Science, Mississauga, ON, Canada). The immobilization of the hFRα was performed using Biacore™ T200 immobilization wizard with an amine coupling method aiming for resonance units (RUs) ranging from 5 to 200 RUs. Using multi-cycle kinetics, three to five concentrations of a two-fold dilution series of samples starting at 300 nM with a blank buffer control were injected at 50 uL/min for 180s with a 600s dissociation phase, resulting in a set of sensorgrams with a buffer blank reference. The hFRα surface was regenerated to prepare for the next injection cycle by one pulse of 10 mM glycine/HCl pH 1.5 for 30s at 30 uL/min. Blank-subtracted sensorgrams were analyzed using Biacore™ T200 Evaluation Software v3.0. The blank-subtracted sensorgrams were then fit to the 1:1 Langmuir binding model.

[7] = molecular target: T2, recombinant His-tagged human FRα …; experiment: BLI (Octet RED96) as in Example 8: antibody captured, His-tagged hFRα as analyte, mean of n=2
Method: (§3) The assay buffer used was KB buffer (kinetics buffer, composed of PBS pH 7.4, 0.1% BSA, 0.02% Tween 20, 0.05% sodium azide) supplemented with 0.06% Tween 20 and in some instances also with 1% BSA. The experiment was conducted at 30° C. with a shake speed of 1000 rpm.
(§4) Data analysis was performed using Data Analysis Software 9.0 (ForteBio, Fremont CA). The reference-subtracted binding curves were globally fitted to the 1:1 interaction model to generate the binding kinetic parameters kₒₙ, koff, and the dissociation constant KD.

[8] = molecular target: T2, recombinant His-tagged human FRα …; experiment: BLI (Octet RED96): antibody on anti-human IgG Fc capture biosensor, His-tagged hFRα as analyte, 1:1 global fit, mean of n=2
Method: as §3, §4

[9] = molecular target: T2, recombinant His-tagged human FRα …; experiment: SPR (Biacore T200): hFRα amine-coupled to CM5 chip at high antigen density, bivalent FSA injected, 1:1 Langmuir fit, mean of n=2
Method: (§5) CM5 Series S sensor chip, Biacore™ amine coupling kit (NHS, EDC and 1 M ethanolamine), and 10 mM sodium acetate buffers were purchased from GE Healthcare Life Science (Mississauga, ON, Canada). PBS running buffer with 0.05% Tween20 (PBST) was purchased from Teknova Inc. (Hollister, CA). Recombinant human FRα was purchased from ACRObiosystems (Newark, DE).
as §2

[10] = molecular target: T2, recombinant His-tagged human FRα …; experiment: SPR (Biacore T200): hFRα amine-coupled to CM5 chip at medium antigen density, bivalent FSA injected, 1:1 Langmuir fit, mean of n=2
Method: as §5, §2

[11] = molecular target: T2, recombinant His-tagged human FRα …; experiment: SPR (Biacore T200): hFRα amine-coupled to CM5 chip at medium-low antigen density, bivalent FSA injected, 1:1 Langmuir fit, mean of n=2
Method: as §5, §2

[12] = molecular target: T2, recombinant His-tagged human FRα …; experiment: BLI (Octet RED96): antibody loaded on anti-human IgG Fc capture biosensors, His-tagged hFRα in solution. Six traces with fit lines plateau between about 0.06 and 0.36 nm during 0-400 s association and return to baseline by about 520 s. The legend prints the same globally fitted KD for all six traces (single run; the text prints only the mean of n=2).
Method: as §3, §4

[13] = molecular target: T2, recombinant His-tagged human FRα …; experiment: SPR (Biacore T200), high antigen density; end of the range tied to v30399 by Table 8.3
Method: as §2

T1 sequence (P15328 25-234 limits assumed): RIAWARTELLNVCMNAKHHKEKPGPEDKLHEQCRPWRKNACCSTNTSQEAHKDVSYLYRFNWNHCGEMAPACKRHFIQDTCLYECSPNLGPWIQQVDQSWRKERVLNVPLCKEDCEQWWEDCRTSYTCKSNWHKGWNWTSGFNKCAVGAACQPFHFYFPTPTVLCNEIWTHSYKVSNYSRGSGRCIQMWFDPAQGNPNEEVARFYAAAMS

Binder	fold increase in internalized fluorescence compared to farletuzumab; IGROV-1 cells, 6-hour incubation, 5 nM [1] [fold]	fold increase in internalized fluorescence compared to farletuzumab; IGROV-1 cells, 6-hour incubation, 25 nM [1] [fold]	fold increase in internalized fluorescence compared to farletuzumab; IGROV-1 cells, 24-hour incubation, 5 nM [1] [fold]	fold increase in internalized fluorescence compared to farletuzumab; IGROV-1 cells, 24-hour incubation, 25 nM [1] [fold]	fold increase in internalized fluorescence compared to mirvetuximab; IGROV-1 cells, 6-hour incubation, 5 nM [1] [fold]	fold increase in internalized fluorescence compared to mirvetuximab; IGROV-1 cells, 6-hour incubation, 25 nM [1] [fold]	fold increase in internalized fluorescence compared to mirvetuximab; IGROV-1 cells, 24-hour incubation, 5 nM [1] [fold]	fold increase in internalized fluorescence compared to mirvetuximab; IGROV-1 cells, 24-hour incubation, 25 nM [1] [fold]	Kd [2] [nM]	Kd [3] [nM]	Kd [4] [nM]	Kd [5] [nM]	fold lower KD in FSA compared to one-armed antibody (OAA) format [6] [fold]	Kd [7] [nM]	Kd [8] [nM]	Kd [9] [nM]	Kd [10] [nM]	Kd [11] [nM]	Kd [12] [nM]	fold lower KD in FSA compared to one-armed antibody (OAA) format [13] [fold]
v30384 (antibody, human IgG1, kappa, Humanized full-size IgG1/kappa antibody with heterodimeric Fc (HetFc); also called humanized variant v30384; parental humanized) heavy 1: EVQLLESGGGLVQPGGSLRLSCAVSGFSLSSYGVSWVRQAPGKGLEWIGAVNSGGSAYYADSVKGRSTISRDNSKNTVYLQMNSLRAEDTAVYYCARSGSGYPMDYLAIWGQGTLVTVSSASTKGPSVFPLAPSSKSTSGGTAALGCLVKDYFPEPVTVSWNSGALTSGVHTFPAVLQSSGLYSLSSVVTVPSSSLGTQTYICNVNHKPSNTKVDKKVEPKSCDKTHTCPPCPAPELLGGPSVFLFPPKPKDTLMISRTPEVTCVVVDVSHEDPEVKFNWYVDGVEVHNAKTKPREEQYNSTYRVVSVLTVLHQDWLNGKEYKCKVSNKALPAPIEKTISKAKGQPREPQVYVYPPSRDELTKNQVSLTCLVKGFYPSDIAVEWESNGQPENNYKTTPPVLDSDGSFALVSKLTVDKSRWQQGNVFSCSVMHEALHNHYTQKSLSLSPG heavy 2: not shown light: DYQMTQSPSSVSASVGDRVTITCRASQSIGDWLAWYQQKPGKAPKLLIYEASTLASGVPSRFSGSGSGTDFTLTISSVQPEDAATYYCQQGYGRSNVDNIFGGGTKVEVKRTVAAPSVFIFPPSDEQLKSGTASVVCLLNNFYPREAKVQWKVDNALQSGNSQESVTEQDSKDSTYSLSSTLTLSKADYEKHKVYACEVTHQGLSSPVTKSFNRGEC	19.1	6.1	4.7	3.9	2.6	3.3	1.9	2.1	0.31	0.07	0.5	1.38	181	127	110	0.79	2.58	3.76	109	–
v30399 (antibody, human IgG1, kappa, Humanized IgG1/kappa, HetFc; also called 4bH4L) heavy 1: EVQVLESGGGLVQPGGSLRLSCAVSGFSLSSYGVSWVRQAPGKGLEWIGAVNSGGSAYYADWAKGRSTISRDNSKNTVYLQMNSLRAEDTAVYYCARSGSGYPMDYLAIWGQGTLVTVSSASTKGPSVFPLAPSSKSTSGGTAALGCLVKDYFPEPVTVSWNSGALTSGVHTFPAVLQSSGLYSLSSVVTVPSSSLGTQTYICNVNHKPSNTKVDKKVEPKSCDKTHTCPPCPAPELLGGPSVFLFPPKPKDTLMISRTPEVTCVVVDVSHEDPEVKFNWYVDGVEVHNAKTKPREEQYNSTYRVVSVLTVLHQDWLNGKEYKCKVSNKALPAPIEKTISKAKGQPREPQVYVYPPSRDELTKNQVSLTCLVKGFYPSDIAVEWESNGQPENNYKTTPPVLDSDGSFALVSKLTVDKSRWQQGNVFSCSVMHEALHNHYTQKSLSLSPG heavy 2: not shown light: DYQMTQSPSSVSASVGDRVTITCRASQSIGDWLAWYQQKPGKAPKLLIYEASTLASGVPSRFSGSGSGTDFTLTISSVQPEDAATYYCQQGYGRSNVDNIFGGGTKVEVKRTVAAPSVFIFPPSDEQLKSGTASVVCLLNNFYPREAKVQWKVDNALQSGNSQESVTEQDSKDSTYSLSSTLTLSKADYEKHKVYACEVTHQGLSSPVTKSFNRGEC	–	–	–	–	–	–	–	–	–	–	–	–	–	–	69	0.709	2.67	3.71	–	116
